This note sets out measurements from the supplement of paper PMC7877785.

The nature of the data set: self-splicing fitness, log relative to wild type (ln ratio); higher = more splicing; Tetrahymena group I intron in knt gene, E. coli kanamycin selection, DiMSum; sequences stand for … in CUCUCU…GGAGGGAAAAGUUAUCAGGCAUGCACCUGGUAGCUAGUCUUUAAACCAAUAGAUUGCAUCGGUUUAAAAGGCAAGACCGUCAAAUUGCGGGAAAGGGGUCAACAGCCGUUCAGUACCAAGUCUCAGGGGAAACUUUGAGAUGGCCUUGCAAAGGGUAUGGUAAUAAGCUGACGGACAUGGUCCUAACCACGCAGCCAAGUCCUAAGUCAACAGAUCUUCUGUUGAUAUGGAUGCAGUUCACAGACUAAAUGUCGGUCGGGGAAGAUGUAUUCUUCUCAUAAGAUAUAGUCGGACCUCUCCUUAAUGGGAGCUAGCGGAUGAAGUGAUGCAACACUGGAGCCGCUGGGAACUAAUUUGUAUGCGAAAGUAUAUUGAUUAGUUUUGGAGUACUCGUGGUCG
In a few lines: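 Six replicate transformations of E. coli BL21(DE3) with a pET-22b(+) library were grown overnight at 37°C or 30°C. The library randomised all eight P1ex-region intron nucleotides, the intron lying in the knt kanamycin-resistance gene, and plates were LB agar with or without 25 μg/mL kanamycin plus 100 μg/mL carbenicillin, 50 μM IPTG and 0.2% rhamnose. Pooled colonies were amplicon-sequenced on an Illumina HiSeq 2500, and fitness is the DiMSum error-weighted combination of wild-type-normalised replicate fold changes, kanamycin versus none.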

± gives the uncertainty stated by the source.

For CACCAGCAAUAUUACGGUCG, the “self-splicing fitness (ln)” value runs as follows: (30 °C) -1.28 ± 0.062; (37 °C) -0.351 ± 0.069. Taken in the same sequence, the figures for CUUAAGCAAUAUUACGCUAU were -1.59 ± 0.32 and -1.8 ± 0.33. As for UCUUAGCAAUAUUACGCCCA, the “self-splicing fitness (ln)” value (37 °C) is -0.128 ± 0.47. With ACCCAGCAAUAUUACGGAAA, the “self-splicing fitness (ln)” value was -0.977 ± 0.083 (30 °C) and -0.213 ± 0.083 (37 °C). Regarding GCACAGCAAUAUUACGAACU, the “self-splicing fitness (ln)” value (30 °C) is -0.419 ± 0.056 and the “self-splicing fitness (ln)” value (37 °C) is -0.167 ± 0.072. Taken in the same sequence, the figures for AGUAAGCAAUAUUACGGUAC were -2.95 ± 0.24 and -2.27 ± 0.31. In the same order, the values of GGUUAGCAAUAUUACGCAGG are -3.31 ± 0.24 and -2.05 ± 0.2. Taken in the same sequence, the figures for ACCGAGCAAUAUUACGGUGG were -2.91 ± 0.13 and -3.14 ± 0.29. In the case of UAGUAGCAAUAUUACGAACU, the “self-splicing fitness (ln)” value reads like this: (30 °C) -0.595 ± 0.16; (37 °C) -1.05 ± 0.15.

As to CUCAAGCAAUAUUACGUACC, the “self-splicing fitness (ln)” value is, setting by setting: (30 °C) -4.45 ± 0.34; (37 °C) -2.04 ± 0.23. In the same order, the values of ACCAAGCAAUAUUACGUGUA are -2.28 ± 0.09 and -1.37 ± 0.096. In the same order, the values of UCCAAGCAAUAUUACGGCGA are 0.214 ± 0.078 and 0.225 ± 0.086. Taken in the same sequence, the figures for CAUUAGCAAUAUUACGUGCU were -4.27 ± 0.24 and -2.36 ± 0.27. As for UGUGAGCAAUAUUACGGGCA, the “self-splicing fitness (ln)” value was -0.886 ± 0.069 (30 °C) and -0.176 ± 0.081 (37 °C). Take CCCAAGCAAUAUUACGAUUU: the “self-splicing fitness (ln)” value by setting is: (30 °C) -2.62 ± 0.13; (37 °C) -2.21 ± 0.17. Taken in the same sequence, the figures for ACAAAGCAAUAUUACGGCAA were -0.0281 ± 0.08 and -0.252 ± 0.1.

Consider CUACAGCAAUAUUACGCAUC, for which the “self-splicing fitness (ln)” value (30 °C) was -3.65 ± 0.27 and the “self-splicing fitness (ln)” value (37 °C) was -1.5 ± 0.16. Taken in the same sequence, the figures for AUCUAGCAAUAUUACGGGAU were -2.92 ± 0.2 and -2.28 ± 0.22. In the same order, the values of GGCGAGCAAUAUUACGAUCA are -1.18 ± 0.17 and -0.735 ± 0.18. Taken in the same sequence, the figures for CCAAAGCAAUAUUACGGGCU were -2.45 ± 0.13 and -3.3 ± 0.23.

For the sequence AGGUAGCAAUAUUACGAAGU, the “self-splicing fitness (ln)” value by setting is: (30 °C) -3.22 ± 0.026; (37 °C) -1.56 ± 0.037.

For the sequence UUCCAGCAAUAUUACGAUAU, the “self-splicing fitness (ln)” value reads like this: (30 °C) -3.13 ± 0.25; (37 °C) -0.723 ± 0.16. As to CUCAAGCAAUAUUACGACAA, the “self-splicing fitness (ln)” value (30 °C) was -2.86 ± 0.23 and the “self-splicing fitness (ln)” value (37 °C) is -1.89 ± 0.21.

Take ACUGAGCAAUAUUACGAUAA: the “self-splicing fitness (ln)” value was -2.94 ± 0.26 (30 °C) and -2.75 ± 0.32 (37 °C).

Regarding CAGUAGCAAUAUUACGAACA, the “self-splicing fitness (ln)” value runs as follows: (30 °C) -3.3 ± 0.48; (37 °C) -2.86 ± 0.41.

Consider GUCUAGCAAUAUUACGUUCU, for which the “self-splicing fitness (ln)” value is -0.494 ± 0.098 (30 °C) and -0.247 ± 0.11 (37 °C). Take CCGUAGCAAUAUUACGCCGG: where the note is “30 °C”, the “self-splicing fitness (ln)” value was -2.94 ± 0.49.

Turning to GGACAGCAAUAUUACGGUGG, the “self-splicing fitness (ln)” value (30 °C) is -1.71 ± 0.11 and the “self-splicing fitness (ln)” value (37 °C) was -1.53 ± 0.14. In the same order, the values of CACCAGCAAUAUUACGAUGC are -2.96 ± 0.13 and -2.06 ± 0.14. Take CGGCAGCAAUAUUACGCCCC: the “self-splicing fitness (ln)” value by setting is: (30 °C) -1.66 ± 0.31; (37 °C) -0.44 ± 0.36. Taken in the same sequence, the figures for AUGAAGCAAUAUUACGUCUU were -2.04 ± 0.081 and -1.44 ± 0.087. Taken in the same sequence, the figures for AACGAGCAAUAUUACGCAGU were -2.87 ± 0.23 and -2.52 ± 0.29. GGAGAGCAAUAUUACGGUCC: the “self-splicing fitness (ln)” value (37 °C) was -1.17 ± 0.34. As to GAUCAGCAAUAUUACGGUUG, the “self-splicing fitness (ln)” value runs as follows: (30 °C) -1.02 ± 0.053; (37 °C) -0.343 ± 0.073.

On to AGCAAGCAAUAUUACGCGAC, for which the “self-splicing fitness (ln)” value runs as follows: (30 °C) -2.95 ± 0.25; (37 °C) -2.35 ± 0.26.

In the case of UAUGAGCAAUAUUACGCCAU, the “self-splicing fitness (ln)” value is, setting by setting: (30 °C) -2.15 ± 0.2; (37 °C) -2.59 ± 0.3.

Consider AUAUAGCAAUAUUACGUUAA, for which the “self-splicing fitness (ln)” value runs as follows: (30 °C) -2.76 ± 0.23; (37 °C) -3.36 ± 0.37. Taken in the same sequence, the figures for AUACAGCAAUAUUACGUCAA were -2.32 ± 0.15 and -1.05 ± 0.1.

Consider CCCGAGCAAUAUUACGUAGA, for which the “self-splicing fitness (ln)” value is -3.94 ± 0.3 (30 °C) and -2.92 ± 0.24 (37 °C). In the same order, the values of GUCUAGCAAUAUUACGGAGU are -0.693 ± 0.096 and 0.121 ± 0.093. In the same order, the values of AGGUAGCAAUAUUACGGAUU are -1.553 ± 0.014 and -0.618 ± 0.033. For UAGGAGCAAUAUUACGGAGA, the “self-splicing fitness (ln)” value (37 °C) was -2.34 ± 0.38.

Regarding GUUAAGCAAUAUUACGGUUG, the “self-splicing fitness (ln)” value by setting is: (30 °C) -3.12 ± 0.28; (37 °C) -1.22 ± 0.24. In the same order, the values of GGAGAGCAAUAUUACGCAUA are -3.12 ± 0.26 and -2.73 ± 0.23. Taken in the same sequence, the figures for AAAAAGCAAUAUUACGGCAG were -1.32 ± 0.074 and -0.434 ± 0.095. For CGGGAGCAAUAUUACGGGGG, the “self-splicing fitness (ln)” value (30 °C) was -2.37 ± 0.3. As to UUCAAGCAAUAUUACGCUCA, the “self-splicing fitness (ln)” value by setting is: (30 °C) -1.42 ± 0.16; (37 °C) 0.0916 ± 0.2.

Consider CAAUAGCAAUAUUACGAACU, for which the “self-splicing fitness (ln)” value is, setting by setting: (30 °C) -3.14 ± 0.27; (37 °C) -1.83 ± 0.18. In the same order, the values of GGGUAGCAAUAUUACGGUCG are -0.207 ± 0.12 and -0.642 ± 0.096. Consider GGAGAGCAAUAUUACGGGUC, for which the “self-splicing fitness (ln)” value (30 °C) is -1.54 ± 0.15 and the “self-splicing fitness (ln)” value (37 °C) was -1.53 ± 0.2. With CGCAAGCAAUAUUACGACAG, the “self-splicing fitness (ln)” value (30 °C) is -0.409 ± 0.083 and the “self-splicing fitness (ln)” value (37 °C) is 0.344 ± 0.13.

In the case of ACGUAGCAAUAUUACGACGC, the “self-splicing fitness (ln)” value is -0.35 ± 0.25 (30 °C) and -0.563 ± 0.3 (37 °C). For CCUAAGCAAUAUUACGCAAG, the “self-splicing fitness (ln)” value (30 °C) is -4.71 ± 0.46. Consider AUGGAGCAAUAUUACGUAAU, for which the “self-splicing fitness (ln)” value (30 °C) is -0.694 ± 0.15 and the “self-splicing fitness (ln)” value (37 °C) was -0.189 ± 0.12. In the same order, the values of AAAUAGCAAUAUUACGGUCA are -0.724 ± 0.069 and 0.0582 ± 0.071. Taken in the same sequence, the figures for ACUCAGCAAUAUUACGCGAU were -3.34 ± 0.16 and -2.18 ± 0.2. In the same order, the values of AUUUAGCAAUAUUACGGCGU are -0.211 ± 0.11 and 0.269 ± 0.13.

For GAGAAGCAAUAUUACGCAAA, the “self-splicing fitness (ln)” value runs as follows: (30 °C) -3.07 ± 0.14; (37 °C) -1.8 ± 0.15. Regarding CGAGAGCAAUAUUACGCUGA, the “self-splicing fitness (ln)” value was -2.91 ± 0.44 (30 °C) and -0.634 ± 0.27 (37 °C). In the same order, the values of UACGAGCAAUAUUACGAUCG are -0.594 ± 0.1 and -0.663 ± 0.13. Consider UUAGAGCAAUAUUACGCAAA, for which the “self-splicing fitness (ln)” value was -1.89 ± 0.14 (30 °C) and -0.682 ± 0.16 (37 °C). In the same order, the values of CUCCAGCAAUAUUACGCAUG are -2.12 ± 0.08 and -1.06 ± 0.074. In the same order, the values of GGUCAGCAAUAUUACGGGAU are -1.12 ± 0.16 and -2.85 ± 0.38. In the case of AUAAAGCAAUAUUACGGCUC, the “self-splicing fitness (ln)” value came out at 0.203 ± 0.11 (30 °C) and 1.04 ± 0.15 (37 °C).

For AGACAGCAAUAUUACGCAUU, the “self-splicing fitness (ln)” value by setting is: (30 °C) -3.41 ± 0.12; (37 °C) -1.45 ± 0.087. In the same order, the values of GGUCAGCAAUAUUACGGCGC are -0.127 ± 0.12 and -0.0173 ± 0.14. Regarding UUUGAGCAAUAUUACGGAAA, the “self-splicing fitness (ln)” value is -2.01 ± 0.21 (30 °C) and -1.95 ± 0.24 (37 °C). With GCGGAGCAAUAUUACGCGGU, where the note is “30 °C”, the “self-splicing fitness (ln)” value is -1.68 ± 0.44.

Regarding AUAGAGCAAUAUUACGAUAU, the “self-splicing fitness (ln)” value is -0.196 ± 0.065 (30 °C) and 1.04 ± 0.082 (37 °C).

Turning to CUAUAGCAAUAUUACGAGCG, the “self-splicing fitness (ln)” value runs as follows: (30 °C) 0.114 ± 0.086; (37 °C) 0.29 ± 0.11.

Take UCGGAGCAAUAUUACGCAGC: the “self-splicing fitness (ln)” value (30 °C) was -2.31 ± 0.5. Turning to GAUAAGCAAUAUUACGUUAU, the “self-splicing fitness (ln)” value is -2.81 ± 0.1 (30 °C) and -1.63 ± 0.1 (37 °C). In the same order, the values of CCGAAGCAAUAUUACGGGGG are -4.9 ± 0.46 and -2.26 ± 0.33. Taken in the same sequence, the figures for GCCUAGCAAUAUUACGCAGU were -1.77 ± 0.13 and -0.206 ± 0.12. In the case of CAGUAGCAAUAUUACGACUC, the “self-splicing fitness (ln)” value reads like this: (30 °C) -0.076 ± 0.18; (37 °C) 0.539 ± 0.28. In the same order, the values of UACAAGCAAUAUUACGGAAA are -2.07 ± 0.24 and -1.99 ± 0.27. As for UAGAAGCAAUAUUACGCUUU, for the setting “37 °C”, the “self-splicing fitness (ln)” value is -1.99 ± 0.3. As for UUGUAGCAAUAUUACGUGCU, the “self-splicing fitness (ln)” value by setting is: (30 °C) -3.17 ± 0.27; (37 °C) -1.54 ± 0.21.
